Patent publication US20130272968A1 (Bayer, published 2013)

B1: 006-H08 (human IgG1) (antibody, V domains shown)
VH: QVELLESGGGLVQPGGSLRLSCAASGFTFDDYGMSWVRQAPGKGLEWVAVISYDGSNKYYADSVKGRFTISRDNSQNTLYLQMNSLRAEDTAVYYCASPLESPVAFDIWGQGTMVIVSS
VL: DIVLTQPPSASGTPGQRVTISCSGSNSNIGSNPVNWYQQLPGTAPKLLIYDNNKRPSGVPDRFSGSKSGTSASLAISGLRSEDEADYYCQSYDTGLSGWVFGGGTKLTVLG
B2: HE06.642 (antibody, IgG1, V domains shown)
VH: EVQLVESGGGLVQPGGSLRLSCAVSGFTFSSYGMSWVRQAPGKGLEWVATVSSGGTYTYYPDSVKGRFTISRDNSKNTLYLQMNSLRAEDTAVYYCARHRGNYYATYYYAMDYWGQGTLVTVSS
VL: DIVLTQSPDSLAVSLGERATINCKASKSVSTSGYTYMHWYQQKPGQPPKLLIYLASNRESGVPDRFSGSGSGTDFTLTISPVQAEDVATYYCQHSGELPPSFGQGTKLEIKR
B3: 001-E06 (human IgG1) (antibody, V domains shown)
VH: QVELLESGGGLVQPGGSLRLSCAASGFTFSSYWMSWVRQAPGKGLEWVSSVSDTGTDTHYADSVKGRFTISRDNSKNTLYLQMNSLRAEDTAVYYCAKTPLAYSSGWYYFDYWGQGTLVTVSS
VL: DIVLTQPPSASGTPGQRVTISCSGSSSNIGSNTVNWYQQLPGTAPKLLIYRNYQRPSGVPDRFSGSKSGTSASLAISGLRSEDEADYYCQSYDSSLSGSVFGGGTKLTVLG
B4: 005-C04 (human IgG1) (antibody, V domains shown)
VH: EVQLLESGGGLVQPGGSLRLSCAASGFTFSSYWMHWVRQAPGKGLEWVSDISSASSYTNYADSVKGRFTISRDNSKNTLYLQMNSLRAEDTAVYYCARGLDARRMDYWGQGTLVTVSS
VL: QSVLTQPPSASGTPGQRVTISCTGSSSNIGAGYVVHWYQQLPGTAPKLLIYRNNQRPSGVPDRFSGSKSGTSASLAISGLRSEDEADYYCAAWDDSLNGWLFGGGTKLTVLG
B5: XHA06.642 (antibody, human IgG1, V domains shown)
VH: EVQLVESGGDLVKPGGSLKLSCAVSGFTFSSYGMSWVRQTPDKRLEWVATVSSGGTYTYYPDSVKGRFTISRDNAKNTLYLQMSSLKSEDSAMYYCARHRGNYYATYYYAMDYWGQGTSVTVSS
VL: DIVLTQSPASLAVSLGQGATISCRASKSVSTSGYTYMHWYQQKPGQPPKLLIYLASNLESGVPARFSGSGSGTDFTLNIHPVEEEDAATYYCQHSGELPPSFGGGTKLEIKR
B6: 006-H08-12-2 (Fab, V domains shown)
VH: EVQLLESGGGLVQPGGSLRLSCAASGFTFDDYGMSWVRQAPGKGLEMVAVISFDGSNKYYADSVKGRFTISRDNSQNTLYLQMNSLRAEDTAVYYCASPLESPVAFDIWGQGTLVTVSS
VL: QSVLTQPPSASGTPGQRVTISCSGLNSNVGSSPVNWYQQLPGTAPKLLIYDNNKRPSGVPDRFSGSKSGTSASLAISGLRSEDEADYYCQSYDEGSGMWVFGGGTKLTVL
notes: Tested as E. coli supernatant; also called maturated 006-H08 Fab variant; copies: 1 + 1
B7: 006-H08-29-1 (Fab, V domains shown)
VH: EVQLLESGGGLVQPGGSLRLSCAASGFTFDDYGMSWVRQAPGKGLEMVAVISFDGSNKYYADSVKGRFTISRDNSQNTLYLQMNSLRAEDTAVYYCASPLESPVAFDIWGQGTLVTVSS
VL: QSVLTQPPSASGTPGQRVTISCSGLNDNVGGSPVNWYQQLPGTAPKLLIYDNNKRPSGVPDRFSGSKSGTSASLAISGLRSEDEADYYCQSYDTGAGMWVFGGGTKLTVL
notes: as for B6
B8: 006-H08-39-7 (Fab, V domains shown)
VH: EVQLLESGGGLVQPGGSLRLSCAASGFTFDDYGMSWVRQAPGKGLEMVAVISFDGSNKYYADSVKGRFTISRDNSQNTLYLQMNSLRAEDTAVYYCASPLESPVAFDIWGQGTLVTVSS
VL: QSVLTQPPSASGTPGQRVTISCSGLNSNVGGSPVNWYQQLPGTAPKLLIYDNNKRPSGVPDRFSGSKSGTSASLAISGLRSEDEADYYCQSYDEGSGMWVFGGGTKLTVL
notes: as for B6
B9: 006-H08-15-5 (Fab, V domains shown)
VH: EVQLLESGGGLVQPGGSLRLSCAASGFTFDDYGMSWVRQAPGKGLEMVAVISFDGSNKYYADSVKGRFTISRDNSQNTLYLQMNSLRAEDTAVYYCASPLESPVAFDIWGQGTLVTVSS
VL: QSVLTQPPSASGTPGQRVTISCSGLNSNIGGSPVNWYQQLPGTAPKLLIYDNNKRPSGVPDRFSGSKSGTSASLAISGLRSEDEADYYCQSYDEGLSGWVFGGGTKLTVL
notes: as for B6
B10: 006-H08-48-5 (Fab, V domains shown)
VH: EVQLLESGGGLVQPGGSLRLSCAASGFTFDDYGMSWVRQAPGKGLEMVAVISFDGSNKYYADSVKGRFTISRDNSQNTLYLQMNSLRAEDTAVYYCASPLESPVAFDIWGQGTLVTVSS
VL: QSVLTQPPSASGTPGQRVTISCSGLNDNVGSNPVNWYQQLPGTAPKLLIYDNNKRPSGVPDRFSGSKSGTSASLAISGLRSEDEADYYCQSYDTGSSMWVFGGGTKLTVL
notes: as for B6

molecular target: T1, human prolactin receptor on cells (T47D cells; HEK293 and Ba/F cells stably transfected with human PRLR) (human, UniProt P16471 25-622); test: cell-based or functional assay
T1 sequence (looked up): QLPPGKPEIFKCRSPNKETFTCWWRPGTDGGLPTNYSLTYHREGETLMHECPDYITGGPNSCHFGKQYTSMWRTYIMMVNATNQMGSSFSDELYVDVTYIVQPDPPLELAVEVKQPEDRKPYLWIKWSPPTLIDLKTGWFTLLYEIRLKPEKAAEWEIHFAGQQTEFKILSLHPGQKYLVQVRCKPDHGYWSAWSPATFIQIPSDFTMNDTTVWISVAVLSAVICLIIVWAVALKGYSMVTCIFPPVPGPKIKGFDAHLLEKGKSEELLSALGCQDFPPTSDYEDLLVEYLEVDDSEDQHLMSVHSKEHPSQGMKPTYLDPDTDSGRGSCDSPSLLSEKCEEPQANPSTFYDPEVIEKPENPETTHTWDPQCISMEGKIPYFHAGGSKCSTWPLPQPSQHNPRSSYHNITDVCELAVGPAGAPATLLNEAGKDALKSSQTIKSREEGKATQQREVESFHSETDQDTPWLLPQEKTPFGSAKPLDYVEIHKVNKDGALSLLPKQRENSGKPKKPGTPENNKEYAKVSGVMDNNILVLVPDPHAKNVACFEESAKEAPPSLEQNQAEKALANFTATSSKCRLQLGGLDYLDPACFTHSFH

Binder	IC50, prolactin-activated luciferase reporter gene activity, HEK293 cells stably transfected with hPRLR [µg/mL]
B1	0.83
B2	0.63

molecular target: T2, murine prolactin receptor on cells (HEK293 and Ba/F cells stably transfected with murine PRLR) (mouse, UniProt Q08501 20-608); test: cell-based or functional assay
T2 sequence (looked up): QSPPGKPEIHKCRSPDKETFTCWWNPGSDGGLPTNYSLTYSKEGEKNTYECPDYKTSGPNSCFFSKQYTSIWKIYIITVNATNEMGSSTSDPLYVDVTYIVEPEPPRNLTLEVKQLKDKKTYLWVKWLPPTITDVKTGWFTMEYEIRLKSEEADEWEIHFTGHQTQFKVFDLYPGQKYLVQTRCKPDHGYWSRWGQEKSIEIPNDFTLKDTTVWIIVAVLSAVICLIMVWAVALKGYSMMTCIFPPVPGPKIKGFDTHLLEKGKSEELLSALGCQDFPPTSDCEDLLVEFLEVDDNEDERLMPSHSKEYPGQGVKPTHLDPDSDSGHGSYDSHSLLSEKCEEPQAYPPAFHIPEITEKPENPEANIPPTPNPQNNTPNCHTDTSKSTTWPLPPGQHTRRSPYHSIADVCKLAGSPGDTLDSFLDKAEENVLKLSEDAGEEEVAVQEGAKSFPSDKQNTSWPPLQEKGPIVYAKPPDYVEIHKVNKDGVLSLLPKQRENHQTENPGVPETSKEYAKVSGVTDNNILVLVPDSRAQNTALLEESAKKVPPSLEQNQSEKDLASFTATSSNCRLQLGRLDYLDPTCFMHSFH

Binder	IC50, inhibition of prolactin-activated proliferation of Ba/F cells stably expressing the murine prolactin receptor [µg/mL]	IC50, prolactin-activated luciferase reporter gene activity, HEK293 cells stably transfected with mPRLR [µg/mL]
B3	43.7	–
B4	0.74	0.45
B2	> 30	–
B5	–	> 50

molecular target: T3, extracellular domain of human PRLR (soluble, monomeric, expressed in HEK293 cells) (human, UniProt P16471 25-234); test: HTRF competition: Fab-containing E. coli supernatant with biotinylated ECD of human PRLR and streptavidin-europium, then Alexa Fluor 647-labelled IgG1 006-H08 as competitor; signal at 665 nm after 5 to 65 min; lower signal than control Fab 006-H08 = improved binding
T3 construct: also called ECD-PRLR; ECD of PRLR
T3 sequence: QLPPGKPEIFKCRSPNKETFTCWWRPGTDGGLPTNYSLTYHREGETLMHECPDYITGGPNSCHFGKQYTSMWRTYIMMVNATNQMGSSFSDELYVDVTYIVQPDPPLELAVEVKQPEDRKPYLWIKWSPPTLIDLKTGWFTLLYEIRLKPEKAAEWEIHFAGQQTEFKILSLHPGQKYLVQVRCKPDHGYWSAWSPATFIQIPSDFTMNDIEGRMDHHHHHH

Binder	binding result
B6	binds
B7	binds
B8	binds
B9	binds
B10	binds
